The values below come from publication PMC2978343.

The target of test [1] is Ecl18kI restriction endonuclease, wild type (UniProt O87963). In words: tethered particle motion.
For test [2], the target named is Ecl18kI R174A mutant (UniProt O87963).
Test [3] shares this target. Nature of the test: atomic force microscopy.

With “Ecl18kI restriction endonuclease, wild type (from UniProt O87963 1-305) (enzyme)”, the k unloop (loop breakage rate constant, tetramer to two DNA-bound dimers) in test [1] was determined as 0.86 s⁻¹. In turn, “Ecl18kI R174A mutant (from UniProt O87963 1-305) (enzyme)” showed a phage lambda DNA cleavage activity, % of wt in test [2] of 0.2%. This substance also yielded a stoichiometry N in test [3] of 2.
